Data set [1] addresses T1, GCN4 (222-281), bZIP DNA-binding domain (UniProt P03069 P03069:222-281). Nature of the data set: EMSA; bound near saturation at 200 nM GCN4; 10 mM bisTris pH 7.0, 100 mM NaCl, 1 mM DTT, 1 mM EDTA, 50 ug/mL poly(dI-dC), 22 C; inhibited by polyamides 3, 5 and 13, not by 1 or 4. The settings on record: protein: synthetic; tags: none; prepared by solid phase peptide synthesis; chain copies: 2 (inferred); label: 5'-32P. The method, then:
(§1) For gel mobility shifts, polyamide was incubated with radiolabeled synthetic DNA duplex (10 kcpm) in 40 µL reaction volumes of bisTris (10 mM, pH 7.0), NaCl (100 mM), DTT (1 mM), EDTA (1 mM), and poly(dI-dC)·poly(dI-dC) (50 µg/mL) for 16 hours at 22° C. (20 mM MOPS, pH 7.0, 140 mM KCl, 10 mM NaCl, 1 mM MgCl_2, 1 mM spermine was used to model ionic conditions in vivo). GCN4 (222–281) was added and equilibrated for 30 minutes. Loading buffer (15% Ficoll, 0.025% bromophenol blue) (10 µL) was added and 10 µL was immediately loaded onto a running 8% (29:1, acrylamide:bis-acrylamide) polyacrylamide gel (0.5×TBE, 280 V, 0.8 mm, 13 cm). Sufficient separation of the free DNA and the DNA·GCN4 (222–281) complexes was achieved within 45 minutes. Gels were dried and exposed to a storage phosphor screen (Molecular Dynamics) (Johnston, et al. (1990) *Electrophoresis* 11, 355).
(§2) ImPyPyPy-γ-PyPyPyPy-β-polyamides (1 and 3) target the six base pair 5'-TGTTAT-3' site adjacent to the GCN4 binding site of ARE-1 (FIG. 6). ImImPyPy-γ-ImPyPyPy-β-polyamides (2 and 4) were designed to bind 5'-TGGTCT-3' adjacent to the GCN4 site in ARE-2 (FIG. 6).
(§3) The ability of polyamides to inhibit GCN4 (222–281) binding was evaluated using the gel mobility shift assay. […]
For orientation: A gel shift assay detects complexes by their altered migration in electrophoresis.

The target of data set [2] is T1, GCN4 (222-281), bZIP DNA-binding domain. The data set is described as follows: EMSA; bound near saturation at 200 nM GCN4; same buffer, 22 C; inhibited by matched polyamides 4 and 6, not by 2 or 3. As to conditions: protein: synthetic; tags: none; prepared by solid phase peptide synthesis; chain copies: 2 (inferred); label: 5'-32P. The method, then:
as §1, §2, §3

Two molecules from patent US6958240, “Inhibition of major groove DNA binding proteins by modified polyamides” (California Instiute of Technology) can be followed below.

T1 sequence (P03069 222-281, one chain of several): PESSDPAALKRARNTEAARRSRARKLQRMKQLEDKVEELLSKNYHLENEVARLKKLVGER

B1: ARE-1 (dsDNA)
DNA 1: CCGGATCCATGGTTGCTGACTAATTGTTATCCTCTAGAGTCGACC
DNA 2: GGTCGACTCTAGAGGATAACAATTAGTCAGCAACCATGGATCCGG
With B1, the binding result in data set [1] is listed as “binds”.

B2: ARE-2 (dsDNA)
DNA 1: CCGGATCCATGGTTGCTGACTAATTGGTCTCCTCTAGAGTCGACC
DNA 2: GGTCGACTCTAGAGGAGACCAATTAGTCAGCAACCATGGATCCGG
Consider B2, for which the binding result in data set [2] is “binds”.
